Patent US20140274782A1, “AFFINITY REAGENTS AND METHODS FOR DETECTION, PURIFICATION, AND PROTEOMIC ANALYSIS OF METHYLATED PROTEINS” (The Board of Trustees of the Leland Stanford Junior …, priority 2013, published 2014)

T1: G9a and GLP (Homo sapiens, UniProt Q96KQ7+Q9H9B1)
T1 sequence (Q96KQ7 2-1210 limits assumed): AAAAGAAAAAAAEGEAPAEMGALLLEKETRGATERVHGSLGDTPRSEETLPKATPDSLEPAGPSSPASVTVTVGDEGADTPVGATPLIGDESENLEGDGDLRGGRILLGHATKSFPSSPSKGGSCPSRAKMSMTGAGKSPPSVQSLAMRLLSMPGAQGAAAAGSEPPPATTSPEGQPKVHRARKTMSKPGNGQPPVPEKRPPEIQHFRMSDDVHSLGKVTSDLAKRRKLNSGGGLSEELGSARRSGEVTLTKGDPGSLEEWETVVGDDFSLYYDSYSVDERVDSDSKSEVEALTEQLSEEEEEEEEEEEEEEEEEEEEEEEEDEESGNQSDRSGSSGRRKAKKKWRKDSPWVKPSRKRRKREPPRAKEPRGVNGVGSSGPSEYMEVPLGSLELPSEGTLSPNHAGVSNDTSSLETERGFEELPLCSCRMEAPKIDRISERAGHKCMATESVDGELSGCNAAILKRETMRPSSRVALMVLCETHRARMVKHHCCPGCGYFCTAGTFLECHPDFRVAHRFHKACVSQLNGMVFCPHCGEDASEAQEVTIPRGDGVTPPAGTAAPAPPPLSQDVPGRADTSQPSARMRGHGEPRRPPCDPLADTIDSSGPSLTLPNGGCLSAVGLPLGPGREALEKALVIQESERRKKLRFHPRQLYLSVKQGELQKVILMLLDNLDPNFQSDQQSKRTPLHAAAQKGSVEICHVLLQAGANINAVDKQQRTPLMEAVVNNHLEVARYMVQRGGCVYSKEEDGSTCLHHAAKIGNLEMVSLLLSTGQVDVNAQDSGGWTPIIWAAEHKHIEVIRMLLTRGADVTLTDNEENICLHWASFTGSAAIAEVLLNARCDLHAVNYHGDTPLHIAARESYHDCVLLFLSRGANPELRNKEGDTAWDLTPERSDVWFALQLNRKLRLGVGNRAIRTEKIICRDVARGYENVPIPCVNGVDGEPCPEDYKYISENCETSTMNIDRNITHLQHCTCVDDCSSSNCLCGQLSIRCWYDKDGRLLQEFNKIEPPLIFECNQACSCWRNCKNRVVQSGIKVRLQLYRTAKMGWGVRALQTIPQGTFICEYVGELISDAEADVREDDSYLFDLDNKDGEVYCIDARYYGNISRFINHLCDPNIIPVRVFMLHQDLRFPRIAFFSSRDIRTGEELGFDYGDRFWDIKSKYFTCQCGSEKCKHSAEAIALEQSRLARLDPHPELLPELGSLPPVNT
T1 sequence (Q9H9B1 2-1298 limits assumed): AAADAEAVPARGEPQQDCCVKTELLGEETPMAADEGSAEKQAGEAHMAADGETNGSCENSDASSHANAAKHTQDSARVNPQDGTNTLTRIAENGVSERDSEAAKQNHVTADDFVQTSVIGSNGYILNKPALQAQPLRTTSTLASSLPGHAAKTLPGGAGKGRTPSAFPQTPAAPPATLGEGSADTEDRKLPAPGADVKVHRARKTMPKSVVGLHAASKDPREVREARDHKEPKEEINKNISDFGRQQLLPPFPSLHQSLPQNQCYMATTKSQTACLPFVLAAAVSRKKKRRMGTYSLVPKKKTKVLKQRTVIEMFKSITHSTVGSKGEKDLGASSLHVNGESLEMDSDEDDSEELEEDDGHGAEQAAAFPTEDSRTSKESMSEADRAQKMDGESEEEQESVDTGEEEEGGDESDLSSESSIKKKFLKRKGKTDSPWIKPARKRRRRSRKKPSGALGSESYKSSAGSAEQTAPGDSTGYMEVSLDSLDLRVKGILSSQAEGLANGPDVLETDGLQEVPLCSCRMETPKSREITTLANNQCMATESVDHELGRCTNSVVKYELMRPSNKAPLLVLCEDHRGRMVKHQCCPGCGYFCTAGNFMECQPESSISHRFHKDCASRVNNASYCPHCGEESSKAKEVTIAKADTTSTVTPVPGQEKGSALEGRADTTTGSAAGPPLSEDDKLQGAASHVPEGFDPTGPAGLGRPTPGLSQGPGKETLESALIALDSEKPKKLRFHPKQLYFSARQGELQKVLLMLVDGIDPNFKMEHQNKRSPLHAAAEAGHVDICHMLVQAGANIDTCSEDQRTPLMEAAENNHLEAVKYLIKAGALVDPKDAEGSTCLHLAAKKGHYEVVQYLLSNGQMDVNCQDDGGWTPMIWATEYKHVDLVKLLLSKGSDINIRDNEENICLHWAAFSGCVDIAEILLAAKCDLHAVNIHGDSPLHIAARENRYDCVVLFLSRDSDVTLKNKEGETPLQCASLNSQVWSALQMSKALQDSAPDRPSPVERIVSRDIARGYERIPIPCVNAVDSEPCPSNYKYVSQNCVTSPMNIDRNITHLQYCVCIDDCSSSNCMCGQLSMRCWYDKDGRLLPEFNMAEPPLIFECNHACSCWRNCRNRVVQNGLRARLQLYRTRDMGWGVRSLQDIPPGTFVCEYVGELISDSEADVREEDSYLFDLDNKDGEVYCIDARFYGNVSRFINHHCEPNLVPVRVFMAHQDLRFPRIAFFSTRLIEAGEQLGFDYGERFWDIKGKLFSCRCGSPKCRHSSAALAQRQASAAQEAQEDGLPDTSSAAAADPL


Tests used:
3×MBT domain of L3MBTL1 = assay: Triple SILAC pull-down, 3xMBT/3xMBTD355N ratio (cytoplasmic, nuclear and chromatin fractions of 293T cells); type: binding, human; settings: SILAC ratio 3xMBT vs 3xMBTD355N pull-down, 293T cells, all values in log base 2; for 3xMBT/D355N UNC Heavy: experiment with UNC0638 in heavy SILAC media; for 3xMBT/D355N UNC Light: experiment with UNC0638 in light SILAC media;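 for all read-outs here: proteins quantified with MaxQuant, requiring at least two unique peptides and quantification in both label directions, normalized to the mean of proteins from a digested loading control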
G9a and GLP = target: T1, G9a and GLP; assay: Triple SILAC pull-down after UNC0638 treatment of 293T cells, DMSO/UNC0638 ratio of protein captured by 3×MBT; type: cell-based; set-up: endogenous in cells; host or cells: HEK 293T; settings: all values in log base 2; for Relative to UNC0638 UNC Light / Relative to UNC0638 UNC Heavy: SILAC ratio DMSO relative to UNC0638, pull-down with 3xMBT; for Relative to UNC0638 UNC Light: UNC0638 in light SILAC media; for Relative to UNC0638 Average: average of UNC Light and UNC Heavy experiments; for Relative to UNC0638 UNC Heavy: UNC0638 in heavy SILAC media;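 for all read-outs here: mass spectrometry (Q-Exactive) SILAC quantitation, DMSO/UNC0638 ratio computed after subtracting 3×MBTD355N mutant pull-down background, only proteins with at least twofold 3×MBT over mutant signal considered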

Relative to UNC0638 UNC Light (G9a and GLP)	Relative to UNC0638 Average (G9a and GLP)	Relative to UNC0638 UNC Heavy (G9a and GLP)	Molecule	3xMBT/D355N UNC Heavy (3×MBT domain of L3MBTL1)	3xMBT/D355N UNC Light (3×MBT domain of L3MBTL1)
−0.49 log base 2	−0.49 log base 2		CTNND1 (protein, UniProt O60716 1-968, looked up) Catenin delta-1: MDDSEVESTASILASVKEQEAQFEKLTRALEEERRHVSAQLERVRVSPQDANPLMANGTLTRRHQNGRFVGDADLERQKFSDLKLNGPQDHSHLLYSTIPRMQEPGQIVETYTEEDPEGAMSVVSVETSDDGTTRRTETTVKKVVKTVTTRTVQPVAMGPDGLPVDASSVSNNYIQTLGRDFRKNGNGGPGPYVGQAGTATLPRNFHYPPDGYSRHYEDGYPGGSDNYGSLSRVTRIEERYRPSMEGYRAPSRQDVYGPQPQVRVGGSSVDLHRFHPEPYGLEDDQRSMGYDDLDYGMMSDYGTARRTGTPSDPRRRLRSYEDMIGEEVPSDQYYWAPLAQHERGSLASLDSLRKGGPPPPNWRQPELPEVIAMLGFRLDAVKSNAAAYLQHLCYRNDKVKTDVRKLKGIPVLVGLLDHPKKEVHLGACGALKNISFGRDQDNKIAIKNCDGVPALVRLLRKARDMDLTEVITGTLWNLSSHDSIKMEIVDHALHALTDEVIIPHSGWEREPNEDCKPRHIEWESVLTNTAGCLRNVSSERSEARRKLRECDGLVDALIFIVQAEIGQKDSDSKLVENCVCLLRNLSYQVHREIPQAERYQEAAPNVANNTGPHAASCFGAKKGKDEWFSRGKKPIEDPANDTVDFPKRTSPARGYELLFQPEVVRIYISLLKESKTPAILEASAGAIQNLCAGRWTYGRYIRSALRQEKALSAIADLLTNEHERVVKAASGALRNLAVDARNKELIGKHAIPNLVKNLPGGQQNSSWNFSEDTVISILNTINEVIAENLEAAKKLRETQGIEKLVLINKSGNRSEKEVRAAALVLQTIWGYKELRKPLEKEGWKKSDFQVNLNNASRSQSSHSYDDSTLPLIDRNQKSDKKPDREEIQMSNMGSNTKSLDNNYSTPNERGDHNRTLDRSGDLGDMEPLKGTTPLMQDEGQESLEEELDVLVLDDEGGQVSYPSMQKI	0.67 log base 2	2.07 log base 2
−0.49 log base 2	−0.54 log base 2	−0.58 log base 2	CSRP2 (protein, UniProt Q16527 1-193, looked up) Cysteine and glycine-rich …: MPVWGGGNKCGACGRTVYHAEEVQCDGRSFHRCCFLCMVCRKNLDSTTVAIHDEEIYCKSCYGKKYGPKGYGYGQGAGTLNMDRGERLGIKPESVQPHRPTTNPNTSKFAQKYGGAEKCSRCGDSVYAAEKIIGAGKPWHKNCFRCAKCGKSLESTTLTEKEGEIYCKGCYAKNFGPKGFGYGQGAGALVHAQ	1.27 log base 2	1.96 log base 2
−0.38 log base 2	−0.12 log base 2	0.14 log base 2	BAZ1B (protein, UniProt Q9UIG0 1-1483, looked up) Tyrosine-protein kinase BAZ1B: MAPLLGRKPFPLVKPLPGEEPLFTIPHTQEAFRTREEYEARLERYSERIWTCKSTGSSQLTHKEAWEEEQEVAELLKEEFPAWYEKLVLEMVHHNTASLEKLVDTAWLEIMTKYAVGEECDFEVGKEKMLKVKIVKIHPLEKVDEEATEKKSDGACDSPSSDKENSSQIAQDHQKKETVVKEDEGRRESINDRARRSPRKLPTSLKKGERKWAPPKFLPHKYDVKLQNEDKIISNVPADSLIRTERPPNKEIVRYFIRHNALRAGTGENAPWVVEDELVKKYSLPSKFSDFLLDPYKYMTLNPSTKRKNTGSPDRKPSKKSKTDNSSLSSPLNPKLWCHVHLKKSLSGSPLKVKNSKNSKSPEEHLEEMMKMMSPNKLHTNFHIPKKGPPAKKPGKHSDKPLKAKGRSKGILNGQKSTGNSKSPKKGLKTPKTKMKQMTLLDMAKGTQKMTRAPRNSGGTPRTSSKPHKHLPPAALHLIAYYKENKDREDKRSALSCVISKTARLLSSEDRARLPEELRSLVQKRYELLEHKKRWASMSEEQRKEYLKKKREELKKKLKEKAKERREKEMLERLEKQKRYEDQELTGKNLPAFRLVDTPEGLPNTLFGDVAMVVEFLSCYSGLLLPDAQYPITAVSLMEALSADKGGFLYLNRVLVILLQTLLQDEIAEDYGELGMKLSEIPLTLHSVSELVRLCLRRSDVQEESEGSDTDDNKDSAAFEDNEVQDEFLEKLETSEFFELTSEEKLQILTALCHRILMTYSVQDHMETRQQMSAELWKERLAVLKEENDKKRAEKQKRKEMEAKNKENGKVENGLGKTDRKKEIVKFEPQVDTEAEDMISAVKSRRLLAIQAKKEREIQEREMKVKLERQAEEERIRKHKAAAEKAFQEGIAKAKLVMRRTPIGTDRNHNRYWLFSDEVPGLFIEKGWVHDSIDYRFNHHCKDHTVSGDEDYCPRSKKANLGKNASMNTQHGTATEVAVETTTPKQGQNLWFLCDSQKELDELLNCLHPQGIRESQLKERLEKRYQDIIHSIHLARKPNLGLKSCDGNQELLNFLRSDLIEVATRLQKGGLGYVEETSEFEARVISLEKLKDFGECVIALQASVIKKFLQGFMAPKQKRRKLQSEDSAKTEEVDEEKKMVEEAKVASALEKWKTAIREAQTFSRMHVLLGMLDACIKWDMSAENARCKVCRKKGEDDKLILCDECNKAFHLFCLRPALYEVPDGEWQCPACQPATARRNSRGRNYTEESASEDSEDDESDEEEEEEEEEEEEEDYEVAGLRLRPRKTIRGKHSVIPPAARSGRRPGKKPHSTRRSQPKAPPVDDAEVDELVLQTKRSSRRQSLELQKCEEILHKIVKYRFSWPFREPVTRDEAEDYYDVITHPMDFQTVQNKCSCGSYRSVQEFLTDMKQVFTNAEVYNCRGSHVLSCMVKTEQCLVALLHKHLPGHPYVRRKRKKFPDRLAEDEGDSEPEAVGQSRGRRQKK	1.37 log base 2	0.19 log base 2
